In one test the target is cynomolgus TLR3 on cells (cynomolgus, UniProt A0A2K5WT39 32-912). The experiment in a line: cell-based or functional assay.
Test [1] concerns the target full-length murine TLR3 on cells (mouse, UniProt Q99MB1 26-905). The experiment in a line: cell-based or functional assay.

B1: mAb 15EVQ (antibody, human IgG4 S228P, kappa, F234A L235A)
heavy: not shown
light: DIQMTQSPSSLSASVGDRVTITCRASQSIGLYLAWYQQKPGKAPKLLIYAASSLQSGVPSRFSGSGSGTDFTLTISSLQPEDFATYYCQQGNTLSYTFGQGTKVEIKRTVAAPSVFIFPPSDEQLKSGTASVVCLLNNFYPREAKVQWKVDNALQSGNSQESVTEQDSKDSTYSLSSTLTLSKADYEKHKVYACEVTHQGLSSPVTKSFNRGEC
On to B1, for which, in the test with cynomolgus TLR3 on cells, the “IC50 in the cyno ISRE reporter assay” value amounted to 1.74 µg/mL and the “IC50 in the cyno NF-κB reporter assay” value is 4.18 µg/mL.

B2: mAb 15 (antibody, human IgG4 S228P, kappa)
heavy: not shown
light: DIQMTQSPSSLSASVGDRVTITCRASQSIGLYLAWYQQKPGKAPKLLIYAASSLQSGVPSRFSGSGSGTDFTLTISSLQPEDFATYYCQQGNTLSYTFGQGTKVEIKRTVAAPSVFIFPPSDEQLKSGTASVVCLLNNFYPREAKVQWKVDNALQSGNSQESVTEQDSKDSTYSLSSTLTLSKADYEKHKVYACEVTHQGLSSPVTKSFNRGEC
Consider B2, for which the “IC50 in the ISRE reporter gene assay, murine TLR3-transfected HEK293T, poly(I:C)” value (“IC50 in the ISRE reporter gene assay” for short) in test [1] stood at 22 µg/mL.

B3: mAb 5429 (antibody, mouse IgG1, kappa, V domains shown)
VH: EVQLVASGGGLVKPGASLKLSCVASGFTFSDYWMAWVRQTPGKPMEYIGDIKSDGSKVNYAPSLKNRFTISRDNARTTLYLQMSNVRSEDTATYYCNRDIGPDWYFDFWGPGTMVTVSS
VL: DIQMTQSPTSLSASLGETVTIECRASEDIYNGLAWYQQKPGKSPQLLIYDSNSLHTGVPSRFSGRGSGTQYSLRINSLQSEDVASYFCQQYYDYPLTFGSGTKLEIKR
On to B3, for which the “IC50 in the ISRE reporter gene assay” value in test [1] was 0.5 µg/mL.

B4: mAb c1811 (antibody, mouse IgG1, kappa, V domains shown)
VH: EVQLVASGGGLVKPGASLKLSCVASGFTFSDYWMAWVRQTPGKPMEYIGDIKSDGSKVNYAPSLKNRFTISRDNARTTLYLQMSNVRSEDTATYYCNRDIGPDWYFDFWGPGTMVTVSS
VL: DIQMTQSPTSLSASLGETVTIECRASEDIYNGLAWYQQKPGKSPQLLIYDSNSLHTGVPSRFSGRGSGTQYSLRINSLQSEDVASYFCQQYYDYPLTFGSGTKLEIKR
Turning to B4, in test [1], the “IC50 in the ISRE reporter gene assay” value stood at 0.7 µg/mL.

(Values after US20130090457A1 (Janssen / Centocor, published 2013).)
